IntAct's records for PubMed 11447112

Target: gapa_dicdi gapA (UniProt O00899)
Sequence (O00899 whole entry): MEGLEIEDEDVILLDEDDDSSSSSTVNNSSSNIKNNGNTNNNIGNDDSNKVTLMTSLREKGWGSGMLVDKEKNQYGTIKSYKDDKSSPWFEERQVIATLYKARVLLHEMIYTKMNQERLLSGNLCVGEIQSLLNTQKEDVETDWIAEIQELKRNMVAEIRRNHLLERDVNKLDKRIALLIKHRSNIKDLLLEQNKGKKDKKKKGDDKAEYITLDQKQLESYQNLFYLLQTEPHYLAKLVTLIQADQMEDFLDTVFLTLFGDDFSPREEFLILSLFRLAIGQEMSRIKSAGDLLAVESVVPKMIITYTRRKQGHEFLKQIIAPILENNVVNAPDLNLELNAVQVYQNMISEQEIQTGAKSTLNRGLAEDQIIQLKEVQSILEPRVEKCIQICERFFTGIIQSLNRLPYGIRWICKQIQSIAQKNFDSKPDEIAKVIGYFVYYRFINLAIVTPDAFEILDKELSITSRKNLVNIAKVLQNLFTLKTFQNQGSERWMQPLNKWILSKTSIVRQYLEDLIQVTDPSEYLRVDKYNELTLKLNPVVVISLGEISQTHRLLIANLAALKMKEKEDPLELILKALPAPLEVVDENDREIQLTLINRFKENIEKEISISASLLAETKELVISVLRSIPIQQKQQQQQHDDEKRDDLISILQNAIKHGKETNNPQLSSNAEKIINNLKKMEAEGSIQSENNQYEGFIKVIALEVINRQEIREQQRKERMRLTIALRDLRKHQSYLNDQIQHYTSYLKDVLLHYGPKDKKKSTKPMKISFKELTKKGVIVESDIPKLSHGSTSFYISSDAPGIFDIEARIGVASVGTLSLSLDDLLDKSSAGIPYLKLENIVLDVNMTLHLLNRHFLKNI

“Rho-related protein rac1A (Dictyostelium discoideum (Slime mold)), P34144 G12N” was tested, and the “effect of a mutation on the interaction” value was “disrupting interaction”.
